This is an account of results in patent publication US20170305975A1.

Assay [1] concerns the target amyloid-β 1-42 fibers (fAβ42) (human) (UniProt P05067). Kind of assay: Aβ binding competition assay; ArgC-treated M13 as competitor of Alexa-488 M13.
The target is the same in assay [2]. Kind of assay: Aβ binding competition assay; ArgC-treated M13 as competitor of Alexa-488 M13; fifth bar, label printed [5 FOLD] (the text speaks of 15 fold).

Chain of amyloid-β 1-42 fibers (fAβ42) (human) (P05067 672-713 limits assumed): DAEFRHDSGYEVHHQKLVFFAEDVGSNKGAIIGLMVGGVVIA

As to “M13Δg3p (M13 phage with g3p removed by ArgC protease)”, the ALEXA LABELED 488 PELLETED worked out at 86.7 in assay [1] and 85.9 in assay [2].
